Among the data in publication PMC5501724, “Structural Basis for Specific Interaction of TGFβ Signaling Regulators SARA/Endofin with HD-PTP” (Structure(London, England:1993), 2017) are response and percent of parent values, retold here.

First the molecules themselves.
B1: endofin 22-mer peptide (first 22 residues of endofin) [human] / His6-HD-PTP_(Bro1-CC) (1-714), bacterially expressed [human] (parent complex)
chain 1: MDSYFKAAVSDLDKLLDDFEQN
chain 2: MEAVPRMPMIWLDLKEAGDFHFQPAVKKFVLKNYGENPEAYNEELKKLELLRQNAVRVPRDFEGCSVLRKYLGQLHYLQSRVPMGSGQEAAVPVTWTEIFSGKSVAHEDIKYEQACILYNLGALHSMLGAMDKRVSEEGMKVSCTHFQCAAGAFAYLREHFPQAYSVDMSRQILTLNVNLMLGQAQECLLEKSMLDNRKSFLVARISAQVVDYYKEACRALENPDTASLLGRIQKDWKKLVQMKIYYFAAVAHLHMGKQAEEQQKFGERVAYFQSALDKLNEAIKLAKGQPDTVQDALRFTMDVIGGKYNSAKKDNDFIYHEAVPALDTLQPVKGAPLVKPLPVNPTDPAVTGPDIFAKLVPMAAHEASSLYSEEKAKLLREMMAKIEDKNEVLDQFMDSMQLDPETVDNLDAYSHIPPQLMEKCAALSVRPDTVRNLVQSMQVLSGVFTDVEASLKDIRDLLEEDELLEQKFQEAVGQAGAISITSKAELAEVRREWAKYMEVHEKASFTNSELHRAMNLHVGNLRLLSGPLDQVRAALPTPALSPEDKAVLQNLKRILAKVQEMRDQRVSLEQQLRELIQKDDITASLVTTDHSEMKKLFEEQLKKYDQLKVYLEQNLAAQDRVLCALTEANVQYAAVRRVLSDLDQKWNSTLQTLVASYEAYEDLMKKSQEGRDFYADLESKVAALLERTQSTCQAREAARQQLLDRELKK
B2: HA-HD-PTP_(Bro1-CC) wild-type, expressed in cells [human] / endogenous endofin [human (endogenous in HEK293)] (parent complex)
chain 1: B1 chain 2
chain 2: MDSYFKAAVSDLDKLLDDFEQNPDEQDYLQDVQNAYDSNHCSVSSELASSQRTSLLPKDQECVNSCASSETSYGTNESSLNEKTLKGLTSIQNEKNVTGLDLLSSVDGGTSDEIQPLYMGRCSKPICDLISDMGNLVHATNSEEDIKKLLPDDFKSNADSLIGLDLSSVSDTPCVSSTDHDSDTVREQQNDISSELQNREIGGIKELGIKVDTTLSDSYNYSGTENLKDKKIFNQLESIVDFNMSSALTRQSSKMFHAKDKLQHKSQPCGLLKDVGLVKEEVDVAVITAAECLKEEGKTSALTCSLPKNEDLCLNDSNSRDENFKLPDFSFQEDKTVIKQSAQEDSKSLDLKDNDVIQDSSSALHVSSKDVPSSLSCLPASGSMCGSLIESKARGDFLPQHEHKDNIQDAVTIHEEIQNSVVLGGEPFKENDLLKQEKCKSILLQSLIEGMEDRKIDPDQTVIRAESLDGGDTSSTVVESQEGLSGTHVPESSDCCEGFINTFSSNDMDGQDLDYFNIDEGAKSGPLISDAELDAFLTEQYLQTTNIKSFEENVNDSKSQMNQIDMKGLDDGNINNIYFNAEAGAIGESHGINIICEIVDKQNTIENGLSLGEKSTIPVQQGLPTSKSEITNQLSVSDINSQSVGGARPKQLFSLPSRTRSSKDLNKPDVPDTIESEPSTADTVVPITCAIDSTADPQVSFNSNYIDIESNSEGGSSFVTANEDSVPENTCKEGLVLGQKQPTWVPDSEAPNCMNCQVKFTFTKRRHHCRACGKVFCGVCCNRKCKLQYLEKEARVCVVCYETISKAQAFERMMSPTGSNLKSNHSDECTTVQPPQENQTSSIPSPATLPVSALKQPGVEGLCSKEQKRVWFADGILPNGEVADTTKLSSGSKRCSEDFSPLSPDVPMTVNTVDHSHSTTVEKPNNETGDITRNEIIQSPISQVPSVEKLSMNTGNEGLPTSGSFTLDDDVFAETEEPSSPTGVLVNSNLPIASISDYRLLCDINKYVCNKISLLPNDEDSLPPLLVASGEKGSVPVVEEHPSHEQIILLLEGESFHPVTFVLNANLLVNVKFIFYSSDKYWYFSTNGLHGLGQAEIIILLLCLPNEDTIPKDIFRLFITIYKDALKGKYIENLDNITFTESFLSSKDHGGFLFITPTFQKLDDLSLPSNPFLCGILIQKLEIPWAKVFPMRLMLRLGAEYKAYPAPLTSIRGRKPLFGEIGHTIMNLLVDLRNYQYTLHNIDQLLIHMEMGKSCIKIPRKKYSDVMKVLNSSNEHVISIGASFSTEADSHLVCIQNDGIYETQANSATGHPRKVTGASFVVFNGALKTSSGFLAKSSIVEDGLMVQITPETMNGLRLALREQKDFKITCGKVDAVDLREYVDICWVDAEEKGNKGVISSVDGISLQGFPSEKIKLEADFETDEKIVKCTEVFYFLKDQDLSILSTSYQFAKEIAMACSAALCPHLKTLKSNGMNKIGLRVSIDTDMVEFQAGSEGQLLPQHYLNDLDSALIPVIHGGTSNSSLPLEIELVFFIIEHLF
B3: endofin 22-mer peptide (first 22 residues of endofin) [human] / His6-HD-PTP_(Bro1) (1-361) [human] (parent complex)
chain 1: MDSYFKAAVSDLDKLLDDFEQN
chain 2: MEAVPRMPMIWLDLKEAGDFHFQPAVKKFVLKNYGENPEAYNEELKKLELLRQNAVRVPRDFEGCSVLRKYLGQLHYLQSRVPMGSGQEAAVPVTWTEIFSGKSVAHEDIKYEQACILYNLGALHSMLGAMDKRVSEEGMKVSCTHFQCAAGAFAYLREHFPQAYSVDMSRQILTLNVNLMLGQAQECLLEKSMLDNRKSFLVARISAQVVDYYKEACRALENPDTASLLGRIQKDWKKLVQMKIYYFAAVAHLHMGKQAEEQQKFGERVAYFQSALDKLNEAIKLAKGQPDTVQDALRFTMDVIGGKYNSAKKDNDFIYHEAVPALDTLQPVKGAPLVKPLPVNPTDPAVTGPDIFAKLV
B4: endofin_(1–84)-strep, in vitro translated [modified: 35S-methionine; 35S-methionine] [human] / His6-HD-PTP_(Bro1-CC) (1-714), bacterially expressed [human] (parent complex)
chain 1: MDSYFKAAVSDLDKLLDDFEQNPDEQDYLQDVQNAYDSNHCSVSSELASSQRTSLLPKDQECVNSCASSETSYGTNESSLNEKT
chain 2: B1 chain 2

The first experiment covers variants of B1. The experiment can be described thus: biosensor binding (sensogram); parent: 80; read off a plot.
In the case of chain 1 MDSYFKAAVSDLDKPLDDFEQN, the response is about 0 RU.

The variants in a further experiment derive from B2. The experiment can be described thus: anti-HA immunoprecipitation from cells, anti-endofin immunoblot, quantitation; four independent experiments (mean ± SD); parent: 100; read off a plot. A general note: Immunoblotting shows a protein as a band on a membrane.
As for chain 1 L202D, the percent of parent is ~9.5 % of WT.

Consider chain 1 R69L, for which the percent of parent was ~68 % of WT.

In the case of chain 1 F62E, the percent of parent was ~30 % of WT.

Consider chain 1 T145K, for which the percent of parent was ~13 % of WT.

In the case of chain 1 R198M, the percent of parent was ~59 % of WT.

With chain 1 H125A, the percent of parent is ~23 % of WT.

The variants in a further experiment derive from B3. The experiment can be described thus: biosensor binding (sensogram); parent: 110; read off a plot.
Consider chain 1 MDSYFKAAVSDLDKPLDDFEQN, for which the response was about 0 RU.

Variants of B4 are the subject of the next experiment. The experiment can be described thus: co-immunoprecipitation with anti-His6 antibody, quantitation of blots; three independent experiments (mean ± SD); parent: 100; read off a plot.
Turning to chain 1 MDSYFKAAVSDLDKPLDDFEQNPDEQDYLQDVQNAYDSNHCSVSSELASSQRTSLLPKDQECVNSCASSETSYGTNESSLNEKT, the percent of parent is ~6 % binding (rel. to WT).
